The target in the assay is T1, 重组人CD47-his蛋白 (ACRO biosystems, cat#CD7-H5227, MW 15.6 kDa) (human, UniProt Q08722 19-139, biotin-labelled in the ELISAs (examples 3.1, 4.1, 4.2); unlabelled in Biacore).
T1 construct: Bought protein; also called 人CD47蛋白; 人CD47-生物素; not shown: His tag
Kind of assay: SPR (Biacore T200), antibody captured by goat anti-mouse IgG, CD47-his in solution. A general note: SPR reads the build-up and loss of mass on a sensor chip optically.

T1 sequence (Q08722 19-139 limits assumed): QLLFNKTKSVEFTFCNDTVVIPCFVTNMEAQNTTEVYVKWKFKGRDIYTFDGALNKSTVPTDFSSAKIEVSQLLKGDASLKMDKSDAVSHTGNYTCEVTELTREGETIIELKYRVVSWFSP

B1: 小鼠抗CD47单克隆抗体1D2 (antibody, V domains shown)
VH: EVQLQQSGPELVKPGASVRISCKTSGYKFTDYNIHWVKQSHGKSLEYIGYIYPYNISSAYNQKFKSKATVTVDNSSSTSYMELRSLTSEDSAVYYCARGGWRAMDYWGQGTSVTVSS
VL: AVLMTQSPLSLPVSLGDQASLSCRSSQNIVHTNGYTYLAWYLQRPGQSPKLLIYKVSNRFSGVPDRFSGSGSGTDFTLRISRVEAEDLGVYYCFQGSHVPWTFGGGTKLEIK
notes: Tested as a mouse monoclonal antibody purified from a hybridoma; 1D2 is the only named antibody of the invention; also called 本发明的单克隆抗体1D2; 本发明的抗体1D2
For the molecule B1, the binding result is listed as “binds”.
